Measurements published in US20200048328A1 (Bristol-Myers Squibb, published 2020).

How the values were obtained:
[1] = molecular target: T1, mouse serum albumin (mouse, UniProt P07724 25-608); assay: direct binding ELISA, albumin coated
T1 construct: also called MSA; MuSA
Method: (§1) Cross-species albumin binding was determined using the ELISA method described above.

[2] = molecular target: T2, rhesus serum albumin (rhesus, UniProt Q28522 17-600); assay: direct binding ELISA, albumin coated
T2 construct: also called RhSA; Rh-SA
Method: as §1

[3] = molecular target: T3, human serum albumin (human, UniProt P02768 25-609); assay: direct binding ELISA, albumin coated
T3 construct: immobilized on chips or coated on plates elsewhere; also called HSA; HuSA
Method: as §1

[4] = molecular target: T4, human PCSK9 (human, UniProt Q8NBP7 31-692); assay: SPR, dual injection on immobilized albumin
T4 construct: also called hPCSK9; huPCSK9

[5] = molecular target: T1, mouse serum albumin; assay: SPR, albumin immobilized, acetate pH 7.4
[6] = molecular target: T2, rhesus serum albumin; assay: SPR, albumin immobilized, acetate pH 7.4
[7] = molecular target: T3, human serum albumin; assay: SPR, albumin immobilized, acetate pH 7.4
[8] = molecular target: T1, mouse serum albumin; assay: SPR, albumin immobilized, acetate pH 7.4; remark: listed apart in the source
[9] = molecular target: T2, rhesus serum albumin; assay: SPR, albumin immobilized, acetate pH 7.4; remark: listed apart in the source
[10] = molecular target: T3, human serum albumin; assay: SPR, albumin immobilized, acetate pH 7.4; remark: listed apart in the source
[11] = molecular target: T5, domain I of HSA (human, UniProt P02768 25-221, limits assumed); assay: SPR on HSA domains
T5 construct: domain: I; also called HSA domain I

[12] = molecular target: T6, domain III of HSA (human, UniProt P02768 405-609, limits assumed); assay: SPR on HSA domains
T6 construct: domain: III; also called HuSA domainIII

[13] = molecular target: T1, mouse serum albumin; assay: SPR, albumin immobilized, Adnectin 250 nM
[14] = molecular target: T2, rhesus serum albumin; assay: SPR, albumin immobilized, Adnectin 250 nM
[15] = molecular target: T3, human serum albumin; assay: SPR, albumin immobilized, Adnectin 250 nM
[16] = molecular target: T7, rat serum albumin (rat, UniProt P02770 25-608); assay: SPR, albumin immobilized, Adnectin 250 nM
T7 construct: also called Rat SA; RSA

[17] = molecular target: T3, human serum albumin; assay: direct binding ELISA on coated HSA, mono-Adnectin (column HSA EC50 (nM))
[18] = molecular target: T2, rhesus serum albumin; assay: SPR, albumin immobilized, acetate pH 5.5
[19] = molecular target: T3, human serum albumin; assay: SPR, albumin immobilized, acetate pH 5.5
[20] = molecular target: T1, mouse serum albumin; assay: SPR, albumin immobilized
Method: (§2) To determine the kinetics of binding to human, rhesus, and mouse serum albumin, as well as whether binding was retained at both physiological and endosomal pHs, the respective serum albumins were immobilized on a Biacore CMS chip to a surface density of ˜1200 RU using standard NHS/EDC coupling. […] Kinetic measurements were carried out using a 3 min association and 6-10 min dissociation phase. Kinetic traces of reference-subtracted sensorgrams were fit to a 1:1 binding model using the Biaevaluation software.
(§3) In addition, binding to albumin was carried out under various pH conditions ranging from pH 5.5 to pH 7.4.

[21] = molecular target: T2, rhesus serum albumin; assay: SPR, albumin immobilized
Method: as §2, §3

[22] = molecular target: T3, human serum albumin; assay: SPR, albumin immobilized
Method: as §2, §3

[23] = molecular target: T7, rat serum albumin; assay: SPR, albumin immobilized;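 further: biacore CM5 surface plasmon resonance with serum albumin coupled to the chip, 3 min association then 6-10 min dissociation, rates from a 1:1 model fit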
Method: as §2, §3

[24] = molecular target: T8, cynomolgus serum albumin (cynomolgus, UniProt A2V9Z4 25-608); assay: SPR, albumin immobilized;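 further: biacore CM5 surface plasmon resonance with serum albumin coupled to the chip, 3 min association then 6-10 min dissociation, rates from a 1:1 model fit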
T8 construct: also called cynoSA; CySA
Method: as §2, §3

[25] = molecular target: T1, mouse serum albumin; assay: SPR, albumin immobilized; remark: listed apart in the source
Method: as §2

[26] = molecular target: T2, rhesus serum albumin; assay: SPR, albumin immobilized; remark: listed apart in the source
Method: as §2

[27] = molecular target: T3, human serum albumin; assay: SPR, albumin immobilized; remark: listed apart in the source
Method: as §2

[28] = molecular target: T1, mouse serum albumin; assay: SPR, albumin immobilized, HBSP pH 7.4
[29] = molecular target: T2, rhesus serum albumin; assay: SPR, albumin immobilized, HBSP pH 7.4
[30] = molecular target: T3, human serum albumin; assay: SPR, albumin immobilized, HBSP pH 7.4

T8 sequence (A2V9Z4 25-608 limits assumed): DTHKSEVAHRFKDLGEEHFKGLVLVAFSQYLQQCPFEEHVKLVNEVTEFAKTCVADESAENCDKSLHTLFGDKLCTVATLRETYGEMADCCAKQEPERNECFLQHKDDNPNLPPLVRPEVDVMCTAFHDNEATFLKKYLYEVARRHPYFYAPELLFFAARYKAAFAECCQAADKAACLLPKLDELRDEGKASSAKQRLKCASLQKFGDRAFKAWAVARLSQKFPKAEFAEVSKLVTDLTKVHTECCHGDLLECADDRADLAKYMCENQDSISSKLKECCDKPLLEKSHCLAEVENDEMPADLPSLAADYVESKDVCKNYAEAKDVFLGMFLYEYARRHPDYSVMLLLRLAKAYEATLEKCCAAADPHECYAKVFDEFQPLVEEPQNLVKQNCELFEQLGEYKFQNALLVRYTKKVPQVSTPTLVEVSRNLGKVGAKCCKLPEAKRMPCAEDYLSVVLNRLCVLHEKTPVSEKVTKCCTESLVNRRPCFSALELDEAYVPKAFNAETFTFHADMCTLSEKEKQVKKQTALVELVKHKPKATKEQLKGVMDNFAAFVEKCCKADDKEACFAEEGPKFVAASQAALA
T2 sequence (Q28522 17-600 limits assumed): as the sequence (A2V9Z4 25-608 limits assumed) above
T7 sequence (P02770 25-608 limits assumed): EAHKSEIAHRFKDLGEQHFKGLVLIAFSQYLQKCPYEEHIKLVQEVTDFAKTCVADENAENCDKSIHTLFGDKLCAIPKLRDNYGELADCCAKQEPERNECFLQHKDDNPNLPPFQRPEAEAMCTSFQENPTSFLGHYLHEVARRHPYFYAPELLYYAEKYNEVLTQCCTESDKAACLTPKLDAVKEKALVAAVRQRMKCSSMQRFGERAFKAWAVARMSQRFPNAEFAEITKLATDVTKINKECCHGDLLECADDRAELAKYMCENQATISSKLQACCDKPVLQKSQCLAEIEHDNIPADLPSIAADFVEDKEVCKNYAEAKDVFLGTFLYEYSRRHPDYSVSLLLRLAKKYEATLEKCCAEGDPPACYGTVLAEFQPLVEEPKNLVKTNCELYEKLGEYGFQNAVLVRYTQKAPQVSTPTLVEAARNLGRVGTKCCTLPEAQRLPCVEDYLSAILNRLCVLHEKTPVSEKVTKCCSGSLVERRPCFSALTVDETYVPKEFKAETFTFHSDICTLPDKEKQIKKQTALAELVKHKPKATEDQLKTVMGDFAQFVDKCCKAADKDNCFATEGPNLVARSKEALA
T1 sequence (P07724 25-608 limits assumed): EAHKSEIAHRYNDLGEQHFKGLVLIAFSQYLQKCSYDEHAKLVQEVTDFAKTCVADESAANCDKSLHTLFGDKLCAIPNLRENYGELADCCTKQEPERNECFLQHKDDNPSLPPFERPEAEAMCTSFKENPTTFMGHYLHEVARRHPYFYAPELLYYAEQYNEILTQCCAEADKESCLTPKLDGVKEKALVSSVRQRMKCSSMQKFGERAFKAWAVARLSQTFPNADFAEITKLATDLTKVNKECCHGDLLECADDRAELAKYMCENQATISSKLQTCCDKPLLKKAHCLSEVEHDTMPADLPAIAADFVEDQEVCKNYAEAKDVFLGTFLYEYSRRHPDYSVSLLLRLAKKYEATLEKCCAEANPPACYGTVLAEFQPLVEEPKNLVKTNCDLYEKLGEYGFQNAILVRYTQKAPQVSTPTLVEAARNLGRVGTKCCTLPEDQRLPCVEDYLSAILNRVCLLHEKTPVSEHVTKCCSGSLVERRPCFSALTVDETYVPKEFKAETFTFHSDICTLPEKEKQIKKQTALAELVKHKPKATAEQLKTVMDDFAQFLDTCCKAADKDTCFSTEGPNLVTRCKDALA

- EC50 [1]: 2.8 nM
- EC50 [2]: 10.5 nM
- EC50 [3]: 14.5 nM
- binding result [4]: no binding
- Kd [5]: 11.2 nM
- koff [5]: 0.000503 s⁻¹
- Kd [6]: 10.4 nM
- koff [6]: 0.000297 s⁻¹
- kon [6]: 28600 M⁻¹ s⁻¹
- Kd [7]: 9.6 nM
- koff [7]: 0.000243 s⁻¹
- kon [7]: 25400 M⁻¹ s⁻¹
- Kd [8]: 3.48 nM
- koff [8]: 0.000268 s⁻¹
- kon [8]: 76800 M⁻¹ s⁻¹
- Kd [9]: 11.8 nM
- koff [9]: 0.000328 s⁻¹
- kon [9]: 27900 M⁻¹ s⁻¹
- Kd [10]: 9.74 nM
- koff [10]: 0.000272 s⁻¹
- kon [10]: 28000 M⁻¹ s⁻¹
- binding result [11]: no binding
- binding result [12]: no binding
- koff [13]: 0.000401 s⁻¹
- koff [14]: 0.000219 s⁻¹
- koff [15]: 0.000169 s⁻¹
- koff [16]: 0.000767 s⁻¹
- EC50 [17]: 20 nM
- Kd [18]: 12 nM
- koff [18]: 0.000584 s⁻¹
- kon [18]: 48500 M⁻¹ s⁻¹
- Kd [19]: 4.64 nM
- koff [19]: 0.000326 s⁻¹
- kon [19]: 70400 M⁻¹ s⁻¹
- Kd [20]: 2.4 nM
- koff [20]: 0.000531 s⁻¹
- kon [20]: 219000 M⁻¹ s⁻¹
- Kd [21]: 3.4 nM
- koff [21]: 0.00024 s⁻¹
- kon [21]: 73900 M⁻¹ s⁻¹
- Kd [22]: 3.2 nM
- koff [22]: 0.000185 s⁻¹
- kon [22]: 61000 M⁻¹ s⁻¹
- Kd [23]: 12.8 nM
- koff [23]: 0.00126 s⁻¹
- kon [23]: 99700 M⁻¹ s⁻¹
- Kd [24]: 3.2 nM
- koff [24]: 0.000229 s⁻¹
- kon [24]: 73700 M⁻¹ s⁻¹
- Kd [25]: 3.6 nM
- koff [25]: 0.000242 s⁻¹
- kon [25]: 68400 M⁻¹ s⁻¹
- Kd [26]: 14.5 nM
- koff [26]: 0.000283 s⁻¹
- kon [26]: 19500 M⁻¹ s⁻¹
- Kd [27]: 12.3 nM
- koff [27]: 0.000213 s⁻¹
- kon [27]: 17400 M⁻¹ s⁻¹
- Kd [28]: 3.43 nM
- koff [28]: 0.000272 s⁻¹
- kon [28]: 79100 M⁻¹ s⁻¹
- Kd [29]: 12.7 nM
- koff [29]: 0.000276 s⁻¹
- kon [29]: 21800 M⁻¹ s⁻¹
- Kd [30]: 10.6 nM
- koff [30]: 0.000219 s⁻¹
- kon [30]: 20700 M⁻¹ s⁻¹
B1: PKE2 Adnectin 2629_E06 (designed binder)
chain: MGVSDVPRDLEVVAATPTSLLISWDAPAVTVRYYRITYGREVQKYSDLGPLYIYQEFTVPGSKSTATISGLKPGVDYTITVYAVTGSGESPASSKPISINYRTEIDKPSQHHHHHH
notes: 10Fn3 domain with modified CD loop; the entry includes the His6 tail; also called ADX_2629_E06
